Measurements reported in the nanobody polyreactivity screen of Harvey et al. (2022).

experiment: yeast display, Sf9 membrane polyspecificity reagent, FACS + sequencing; frameworks hold sequencing errors
Method in brief: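 Galactose induction of a Saccharomyces cerevisiae BJ5465 synthetic nanobody display library ran 36–48 hours. The cells were then stained for 1 hour at 4 °C with 10% biotinylated, detergent-solubilized Sf9 membrane reagent, pulled down on streptavidin microbeads and FACS-sorted into low and high (top ~1%) gates on expression and reagent-binding fluorescence. Labels for polyreactivity follow the gate of origin.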

Row | Sequence | polyreactivity (PSR sort gate)
1 | QVQLVESGGGLVQAGGSLRLSCAASGRIFTNYAMGWSRQAPGKERELVAAITGVGSTNYADSVKGRFTISRDNEKNTVYLQMNSLKPEDTAVYYCNAEYDYVSYVYTGFAFDYWGQGTQVTVSS | low polyreactivity
2 | QVQLVESGGGLVQAGGSLRLSCAASGIFSNYAMGWYRQAPGKERELVAAIRSRSGTTYYADSVKGRFTISRDNAKNTVYLQLNSLKPEDTAVYYCDAGGKSRSYYWGQGTQVTVSS | high polyreactivity
3 | QVQLVESGGGLVQAGGSLRLSCAASGSTFRSNAMGWYRQAPGKEGELVAAISSRVGTTNYADSVKGRFTISRDNAKNTVYLQMNSLKPEDTAVYYCAAQGWRYYRTVVPMDYWGQGTQVTVSS | low polyreactivity
4 | QVQLVESGGGLVQAGGSLRLSCAASGSIFGYYAMGGYIQAPGYERELVAAISYSGGSTYYADSVKGRFTISRDHAKNTVYLQMNSLKPEDTAVYYCAAVRRRTRYGYRYDYWGQGTQVTVSS | high polyreactivity
5 | QVQLVESGGGLVQAGRSLRLSCAASGLIFRYYPMGWYRQAPGKEREFVAAISGRGASTYYADSVKGRFTISRDYAKNSVYLQMNCLKPEDTAVYYCATFFPSAVVAFHMDYWGQGTQVTVSS | low polyreactivity
6 | QVQLVESGGGLVQAGGSLRLSCAASGSIFRAYALGWYRQAPGEERELVAAISWRAGRTYYADSVKGRFTISRDNAKNTVYLQMNSLKPEDTAVYYCAARKRAQQGTRDHDYWGQGTQVTVSS | high polyreactivity
7 | QVQLVESGGGLVQAGGSLRLICAASGSTFGPNGMGWYRQAPGKERELVARIDRIGGGTYYADSVKGRFTISRDNAKNTVYLQMNSLKPEDTAVYYCAADGPSPFIQGYAKGDYWGQGTQVTVSS | low polyreactivity
8 | QVQLEESGGGIVQAGGSLRLSCDASGRIFVQYAIGCYRQEPGKEMELVAAISGSGGRTYYADSVKGSFTISRDTAKNTVYLQMNSLKPEDTAVYYCAARYTTGLSFWKPYYYWGQGTQVTVSS | high polyreactivity
9 | QVQLVESGGGLVQAGGSLRLSCAASGSIFYPYAMGWYRQAPGKERELVAAISDSGDITYYADSVKGRFTISRDNAKNTVYLQMNSLKPEDTAVYYCAADRPWGYDYWGQGTQVSVSS | low polyreactivity
10 | QVQLVESGGGLVQAGGSLRLSCAASGSIFRYYAMGWYRQAPGKERELVAVISSGGTRTNYADSVKGRFTISRDTAKNTVYLQMNSLKPEDTAVYYCAAGYLSLYGGGYWGQGTQVTVSS | high polyreactivity
11 | QVQLVESGGGLVHAGGSLRVSCAASGSISDSYAMGWYREAPGKERELVAAITSGDSTYYADSVKGRFTISLDNAKNTVYLQMNSVKPEDTAVYYSAKRVSRVRGYGFTDWSEYDYWGQGTQVTVSS | low polyreactivity
12 | QVQLVESGGGLVQAGGSLRLSCAASGLTFYYYAMGWYRQAPGKERELVAAISYSGSRTYYADSVKGRFTISRDNAKNTVYLQMNSLKPEDTAVYYCAARLSDGGGYWGQGTQVTVSS | high polyreactivity
13 | QVQLVESGGGLDQAGGSLRLSCAASGRTFAYYTMGWYRQAPGKERELVAAITSSGGSTYYADSVKGRFTISRDNAKNTVYLQMKSLKPEDTAVYYCNAYGLRWASRLGYDYWGQGTQVTVSS | high polyreactivity
14 | QVQLVESGGGLVQAGGSLRLSCAASGFIFDYYAMGWYRQAPGKERELVAAITSRGGSTYYADSVKGRFTISRDNAKNTVYLQMNSLKPEDTAVYYCAARRRYAEYNYWGQGTQVTVSS | high polyreactivity
15 | QVQLVESGGGLVQAGGSLRLSCAASGRTFVFYTMGWYRQAPGKERELVAAINSRGGRTYYADSVKGRFTISRDNAKNPVYLQMNSLKPEDTAVYYCNAAFYVTDHDYWGKGTQVTVSS | high polyreactivity
16 | QVQLQESVGGLVQAGGSLRLSCAASGNIFDADIMGRYRQAPGKERELVASITDGGSTNYADSVKGRFTISLDNAKNTVYLHMNSLKPEDTAVYYCAARPHRYTSRHGYWGQGTQVTVSS | high polyreactivity
17 | QVQLVESGGGLVQAGGSLRLSCAASGSISAIYTMGWYRQATGKERELVAAITGSAGSTYADSVKGRFTISRDNAKNTVYLQMNSLKPEDTAVYYCNAQPGDDVKVKLDYWGQGSQVTVSS | low polyreactivity
18 | QVQLVESGGGLVQAGGSLRLSCAPSGFTFRRNAMGWYRQAPGKERELVAVITSSARTNYADSVKGRFTISRDNAKKTVYLEMNSLKPEDTAVYYCAARYHYGVWRERHGYWGQGTKVTVSS | high polyreactivity
19 | QVQLVESGGGLVHAGGSLRLRCAASGSIFYDNAMGWYTQAPWKERELVASIRWSGDSTYYADSVKGRFTISRDNAKNTVYLQMTSLKPEDTAVYYCAADPVEPYFTAIAYGYWGQGTQVTVSS | low polyreactivity
20 | QVQLVESGGGLVQAGGSLRLSCAASGFIFYPYAMGWYRQAPGKERELVAAITWSGSRTYYADSVKGRFTISRDNAKHTVYLQMNSLKPEDTAVYYCNKYPQPTAYDYWGQGTQVTVSS | high polyreactivity
21 | QVQLVESGGGLVQAGGSLRLSCAASGRIFNYNAMGWYRQAPGKERELVATITRGGNTYYADSVKGRFTISRDNAKNTVYLQMNSLKPEDTAVYYCNAAWWKVSYVRQKYYYWGQGTQVTVSS | high polyreactivity
22 | QVQLVESVGGLVQAGGSLRLSCAASGSTFAGYAMGWYRQAPGKERELVATITYSGGSTYYADSVKGRFTISRDNAKNTVYLQMNSLKPEDTEVYYCAKKASYWWGYEYWGQGTQVTVSS | low polyreactivity

Row | Sequence | polyreactivity (PSR sort gate)
23 | QVQLVESGGGLVQAGGSLRLSCAASGRTFSRNAMGWYRQAPGKERELVATISRGGGITFYADSVKGRFTISRDNAKNTVYLQMNSLKPEDTAVYYCNADVRYVGLRRIVDYWGQGTQVTVSS | high polyreactivity
24 | QVQLVESGGGLVQAGGSLRLSCAASGSTFSLYAMGWYRQAPGKERELVARISYTDGSTYYADSVKGRFTISRDNAKNTVYLQMNSLKPEDTAVYYCAADAWYSYTLEDYWGQGTQVTVSS | low polyreactivity
25 | QVQLVESGGGLVQAGGSLRLSCAASGRTFVYNAMGWYRQAPGKERELVAAISFGGGNTYYADSVKGRFTISRDNAKNTVYLQMNSLKPEYTAVYYCAARAGAGPLDYDYWGQGTQVTVSS | low polyreactivity
26 | QVQLVESGGGLVQAGGSLRLSCAASGNTLSYYTMGWYRQAPGKERELVAAISRGGGSTYYADSVKGRFTISRDNSMNTVYLHMNSLKPEDTAVYYCAAEAYRYAWYDYWGQGTQVTVSS | high polyreactivity
27 | QVQLVESGGGLVQAGGSLRLSCAASGLTFYLYDMGWYRQAPGKERELVAAISRRGTSTYYADSVKGRFTISRDNAKNTVYLQMNSLKPEDTAVYYCAADRKFGRDYWGQGTQVTVSS | high polyreactivity
28 | QVQLVESGGGIVQAGGSLRLSCAASGSTFRRYAMGWYRQAPGKERELVASISWSGGSTSYADSVKGRFTISRDNAKNTVYLQMNSLKPEDTAGYYCAAVRYYWGEYYARYAYEYWGQGTQVTVSS | high polyreactivity
29 | QVQLVESGGGLVQAGGSLRLSCAASGLILKYYAMGWYRQAPGKEREFVAAISSSGTRTYADSVKGRFTISRDNAKNTVYLQMNSLKPEDTAVYYCAKDYRVWVAATIAHDYWGQGTQVTVSS | low polyreactivity
30 | QGQLVESAGGLVQAGGSLRLSCAASGSTFDYYTIGWYRQAPGKERELVAAISSSGGSTYYADSVKGRFTISRANAKNTVYLQMNSLKPVDTAVYYCAAKWDWGYGRGFQYGFNYWGQGTQVTVSS | low polyreactivity
31 | QVQLVESGGGFVQAGGSLRLICAASGRIFGYYAMAWYRQAPGQERELVAAINWGGGITYYADSVKGRFTISRDNAKNTVYLQMNSLKPEDTAVYYCATDYKLVYSIYDYWGQGTQVTVSS | low polyreactivity
32 | QVQLVESGGGLVQAGGSLRLSCAASGSTFFYKAMGWYRPAPGKERELVAVISSRGTSTYYADSVKGRFTISRDNAKNTVYLQMNSLKPEDTAVYYCAAVQIRHTATLLHKPGYYWGQGTQVTVSS | high polyreactivity
33 | QVQLVESGGALVQAGGSLRLSCAASGSIFVYNAMGWYIPAPGKERELVAAITSDGSTNYADSVKGRFTISRDNATNTVYLQMNSLKPEDNAVYYCNAGNDQYPSFEYDYWGQGTKVTVSS | low polyreactivity
34 | QVQLVESGGGLVQAGGSLRLSCAASGSILRRYAMGWYRQAPGKERELVAAINYSGGNTYYADSVKGRFTISRDNAKNTVYLQMNSLKPEDTAVYFCAAYYGPYSARYYGGYEYWGQGTQVTVSS | high polyreactivity
35 | QVQLVESGGGLVQAGGSLRLSCAASGRTFYANAMGWYRQAPGKERELVAAISRGGRTYYADSVKGRFTISRDNAKNTVYLQMNIMIPEDTSVYYCAARHTTTAVYSYYRADGGYWGQGTQVTVSS | low polyreactivity
36 | QDQLVESGGGLVQAGGSLRLSCAASGSIFQSNAMGWYRQAPGKERELVAAITSVGRTNYADSVKGRFTIARDNAKNTVYLQMNSLKPEDTAVYYCAADLRGDNRYYYWGQGTQVTVSS | low polyreactivity
37 | QVQLVESGGGLVQAGGSLRLSCAASGFTLTSYAMGWYRQAPGKERELVAGISRGGITYYADSVKGRFTISRDNAKNTVYLQMNSLKPEDTAVYYCNARRTRRWPTTPEFTNFGYWGQGTQVTVSS | high polyreactivity
38 | QVQLVETGGGLVQAGGSLRLSCAASGSIFVRKAMGWYRQAPGKERELVATISYRGASTYYADSVKGRFTISRDNAKNTVYLQLNCLKPEDTAVYYCNAPRFVGLNVYGYDYWGQGTQVTLSS | high polyreactivity
39 | QVQLVESGGGLVQAGGSLRLSCAASGLILDGYAMGWYRQAPGKERELVAAITRSGGRTYYADSVKGRFTISRDNAKNTVYLQMNSLKPEDTAVYYCAALGWSGRYSYDYWGQGTQVTVSS | high polyreactivity
40 | QVQLVESVGGLVQARGSLRLSCAASASIFPSYAMGWYIQAPGKERELVAVISWRGGSTYYADSVKGRFTISRDNAKNTVYLQMNRLKPEDTAVYYCAARSWDPKLSTYPFHFNYWGQGTQVTVSS | high polyreactivity
41 | QVQLVESGGGLVQAGGSLRLSCAASGITFYYYAMGWYRQAPGKERELVASIDNSGGSTYYADSVKGRFTISRDNEKNTVYLQMHSLKPEDTAVYFCAAVSRYYFLGVAFLDDYWGQGTLVTVSS | high polyreactivity
42 | QVQLVESGGGLVQAGGSLRLSCAASGFTFKVYAMGWYRQAPGKERELVAAISKSGGSTYYADSVKGRFTISRDNAMNTVYLQMNSLKPEDTAVDYCATGGYAYVYPYDYWGQGTQVTVSS | low polyreactivity
43 | QVQLVESGGGLVQAGGSLRLSCAASGRILGAYAMGWYRQPPGKERELVASISSGGRTYYADSVKGRFTISRDNAKNTVYLQMNSLKPEATAVYYCAKKKQLSVPASGYDYVYYWGQGTQVTVSS | high polyreactivity
